Reference: the supplement of paper PMC7125110
± gives the standard error. This sample holds only a part of the variants without activity.

B1: glmS ribozyme (parent)
chain: AUAAAAGCGCCAGAACUACAGAAAUGUAGUUGACGAGGAGGAGGUUUAUCGAAUUUUCGGCGGAUGCCUCCAAA

Legend:
Details in all cases: with glucosamine-6-phosphate
[1] = variants of: B1; assay: self-cleavage kobs at 40 uM GlcN6P; higher = faster cleavage; RNA array
Procedure, shortened: (§1)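 Barcoded ribozyme variants, transcribed in situ by E. coli RNA polymerase on sequenced MiSeq chips, were followed via a hybridised Cy3 probe at 37 °C. Glucosamine-6-phosphate ranged from 40 μM to 10 mM in HEPES/KCl/Mg(OAc)2 buffer. kobs came from decay fits to per-tile medians, and kcat and KM from weighted Michaelis–Menten fits.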

[2] = variants of: B1; assay: self-cleavage kobs at 2500 uM GlcN6P; higher = faster cleavage; RNA array
Procedure, shortened: as §1

[3] = variants of: B1; assay: self-cleavage kobs at 10000 uM GlcN6P; higher = faster cleavage; RNA array
Procedure, shortened: as §1

[4] = variants of: B1; assay: self-cleavage kobs at 640 uM GlcN6P; higher = faster cleavage; RNA array
Procedure, shortened: as §1

[5] = variants of: B1; assay: self-cleavage kobs at 160 uM GlcN6P; higher = faster cleavage; RNA array
Procedure, shortened: as §1

## C50G G51A G59A
[1]
  self-cleavage kobs at 40 uM GlcN6P: < 1e-05 s⁻¹

## C50A A53C
[1]
  self-cleavage kobs at 40 uM GlcN6P: < 1e-05 s⁻¹

## C61A G66C
[1]
  self-cleavage kobs at 40 uM GlcN6P: < 1e-05 s⁻¹
[2]
  self-cleavage kobs at 2500 uM GlcN6P: < 1e-05 s⁻¹
[3]
  self-cleavage kobs at 10000 uM GlcN6P: < 1e-05 s⁻¹

## U56C G62U
[1]
  self-cleavage kobs at 40 uM GlcN6P: < 1e-05 s⁻¹
[3]
  self-cleavage kobs at 10000 uM GlcN6P: < 1e-05 s⁻¹

## A48C C68A
[1]
  self-cleavage kobs at 40 uM GlcN6P: < 1e-05 s⁻¹
[3]
  self-cleavage kobs at 10000 uM GlcN6P: < 1e-05 s⁻¹

## A64C C68G C70G
[1]
  self-cleavage kobs at 40 uM GlcN6P: < 1e-05 s⁻¹
[4]
  self-cleavage kobs at 640 uM GlcN6P: < 1e-05 s⁻¹
[2]
  self-cleavage kobs at 2500 uM GlcN6P: < 1e-05 s⁻¹

## C61G C70U
[1]
  self-cleavage kobs at 40 uM GlcN6P: < 1e-05 s⁻¹
[3]
  self-cleavage kobs at 10000 uM GlcN6P: < 1e-05 s⁻¹

## G51A C58G
[1]
  self-cleavage kobs at 40 uM GlcN6P: < 1e-05 s⁻¹
[3]
  self-cleavage kobs at 10000 uM GlcN6P: < 1e-05 s⁻¹

## C61U C71A
[1]
  self-cleavage kobs at 40 uM GlcN6P: < 1e-05 s⁻¹
[5]
  self-cleavage kobs at 160 uM GlcN6P: < 1e-05 s⁻¹
[4]
  self-cleavage kobs at 640 uM GlcN6P: < 1e-05 s⁻¹
[2]
  self-cleavage kobs at 2500 uM GlcN6P: < 1e-05 s⁻¹

## A48G A64G
[1]
  self-cleavage kobs at 40 uM GlcN6P: < 1e-05 s⁻¹
[2]
  self-cleavage kobs at 2500 uM GlcN6P: 7.81e-05 ± 2.4e-05 s⁻¹
[3]
  self-cleavage kobs at 10000 uM GlcN6P: 9.59e-05 ± 2.5e-05 s⁻¹

## U57G U65G
[1]
  self-cleavage kobs at 40 uM GlcN6P: < 1e-05 s⁻¹
[5]
  self-cleavage kobs at 160 uM GlcN6P: < 1e-05 s⁻¹

## U57G U65A
[1]
  self-cleavage kobs at 40 uM GlcN6P: < 1e-05 s⁻¹
[4]
  self-cleavage kobs at 640 uM GlcN6P: < 1e-05 s⁻¹

## G60C A64G
[1]
  self-cleavage kobs at 40 uM GlcN6P: < 1e-05 s⁻¹
[5]
  self-cleavage kobs at 160 uM GlcN6P: < 1e-05 s⁻¹
[4]
  self-cleavage kobs at 640 uM GlcN6P: < 1e-05 s⁻¹
[2]
  self-cleavage kobs at 2500 uM GlcN6P: < 1e-05 s⁻¹
[3]
  self-cleavage kobs at 10000 uM GlcN6P: < 1e-05 s⁻¹

## G60C A64U
[1]
  self-cleavage kobs at 40 uM GlcN6P: < 1e-05 s⁻¹
[5]
  self-cleavage kobs at 160 uM GlcN6P: < 1e-05 s⁻¹
[4]
  self-cleavage kobs at 640 uM GlcN6P: < 1e-05 s⁻¹
[2]
  self-cleavage kobs at 2500 uM GlcN6P: < 1e-05 s⁻¹
[3]
  self-cleavage kobs at 10000 uM GlcN6P: < 1e-05 s⁻¹

## A53G C71G
[1]
  self-cleavage kobs at 40 uM GlcN6P: 0.000153 ± 2e-05 s⁻¹
[4]
  self-cleavage kobs at 640 uM GlcN6P: 0.000377 ± 5.8e-05 s⁻¹
[2]
  self-cleavage kobs at 2500 uM GlcN6P: 0.00062 ± 0.00013 s⁻¹

## C50G G66U
[1]
  self-cleavage kobs at 40 uM GlcN6P: 0.000495 ± 0.00015 s⁻¹
[2]
  self-cleavage kobs at 2500 uM GlcN6P: 0.000123 ± 5.1e-05 s⁻¹

## C50U A64C C67A
[1]
  self-cleavage kobs at 40 uM GlcN6P: < 1e-05 s⁻¹
[4]
  self-cleavage kobs at 640 uM GlcN6P: < 1e-05 s⁻¹
[2]
  self-cleavage kobs at 2500 uM GlcN6P: < 1e-05 s⁻¹

## U55C G60U C68U
[1]
  self-cleavage kobs at 40 uM GlcN6P: < 1e-05 s⁻¹
[2]
  self-cleavage kobs at 2500 uM GlcN6P: < 1e-05 s⁻¹

## C50A G59C
[1]
  self-cleavage kobs at 40 uM GlcN6P: < 1e-05 s⁻¹
[4]
  self-cleavage kobs at 640 uM GlcN6P: < 1e-05 s⁻¹
[2]
  self-cleavage kobs at 2500 uM GlcN6P: < 1e-05 s⁻¹
[3]
  self-cleavage kobs at 10000 uM GlcN6P: < 1e-05 s⁻¹

## C61U A64C
[1]
  self-cleavage kobs at 40 uM GlcN6P: < 1e-05 s⁻¹
[2]
  self-cleavage kobs at 2500 uM GlcN6P: < 1e-05 s⁻¹
[3]
  self-cleavage kobs at 10000 uM GlcN6P: < 1e-05 s⁻¹

## C61G G63A
[1]
  self-cleavage kobs at 40 uM GlcN6P: < 1e-05 s⁻¹
[5]
  self-cleavage kobs at 160 uM GlcN6P: < 1e-05 s⁻¹
[3]
  self-cleavage kobs at 10000 uM GlcN6P: < 1e-05 s⁻¹

## U55C G62A
[1]
  self-cleavage kobs at 40 uM GlcN6P: < 1e-05 s⁻¹
[5]
  self-cleavage kobs at 160 uM GlcN6P: < 1e-05 s⁻¹
[4]
  self-cleavage kobs at 640 uM GlcN6P: < 1e-05 s⁻¹
[2]
  self-cleavage kobs at 2500 uM GlcN6P: < 1e-05 s⁻¹
[3]
  self-cleavage kobs at 10000 uM GlcN6P: < 1e-05 s⁻¹

## A52U G63C
[1]
  self-cleavage kobs at 40 uM GlcN6P: < 1e-05 s⁻¹
[5]
  self-cleavage kobs at 160 uM GlcN6P: < 1e-05 s⁻¹
[4]
  self-cleavage kobs at 640 uM GlcN6P: < 1e-05 s⁻¹
[3]
  self-cleavage kobs at 10000 uM GlcN6P: < 1e-05 s⁻¹

## A52C G60U
[1]
  self-cleavage kobs at 40 uM GlcN6P: < 1e-05 s⁻¹
[3]
  self-cleavage kobs at 10000 uM GlcN6P: < 1e-05 s⁻¹

## A64G U65G C71A
[1]
  self-cleavage kobs at 40 uM GlcN6P: 5.45e-05 ± 2.2e-05 s⁻¹
[3]
  self-cleavage kobs at 10000 uM GlcN6P: 0.00131 ± 0.00024 s⁻¹

## A48U G63C
[1]
  self-cleavage kobs at 40 uM GlcN6P: < 1e-05 s⁻¹
[5]
  self-cleavage kobs at 160 uM GlcN6P: < 1e-05 s⁻¹
[4]
  self-cleavage kobs at 640 uM GlcN6P: < 1e-05 s⁻¹
[2]
  self-cleavage kobs at 2500 uM GlcN6P: < 1e-05 s⁻¹
[3]
  self-cleavage kobs at 10000 uM GlcN6P: < 1e-05 s⁻¹

## U54G C70U
[1]
  self-cleavage kobs at 40 uM GlcN6P: 0.00112 ± 0.00013 s⁻¹
[5]
  self-cleavage kobs at 160 uM GlcN6P: 0.000836 ± 0.00011 s⁻¹
[4]
  self-cleavage kobs at 640 uM GlcN6P: 0.00544 ± 0.001 s⁻¹

## G60A G62U
[1]
  self-cleavage kobs at 40 uM GlcN6P: < 1e-05 s⁻¹
[5]
  self-cleavage kobs at 160 uM GlcN6P: < 1e-05 s⁻¹
[4]
  self-cleavage kobs at 640 uM GlcN6P: < 1e-05 s⁻¹
[2]
  self-cleavage kobs at 2500 uM GlcN6P: < 1e-05 s⁻¹

## C50G U65C C67U
[1]
  self-cleavage kobs at 40 uM GlcN6P: 6.84e-05 ± 1.4e-05 s⁻¹
[2]
  self-cleavage kobs at 2500 uM GlcN6P: 0.000106 ± 2e-05 s⁻¹
[3]
  self-cleavage kobs at 10000 uM GlcN6P: 9.96e-05 ± 1.4e-05 s⁻¹

## G63U U65G
[1]
  self-cleavage kobs at 40 uM GlcN6P: < 1e-05 s⁻¹
[5]
  self-cleavage kobs at 160 uM GlcN6P: < 1e-05 s⁻¹
[4]
  self-cleavage kobs at 640 uM GlcN6P: < 1e-05 s⁻¹
[2]
  self-cleavage kobs at 2500 uM GlcN6P: < 1e-05 s⁻¹
[3]
  self-cleavage kobs at 10000 uM GlcN6P: < 1e-05 s⁻¹

## A64G U65C C68A
[1]
  self-cleavage kobs at 40 uM GlcN6P: < 1e-05 s⁻¹
[2]
  self-cleavage kobs at 2500 uM GlcN6P: < 1e-05 s⁻¹
[3]
  self-cleavage kobs at 10000 uM GlcN6P: < 1e-05 s⁻¹

## G60U U69G
[1]
  self-cleavage kobs at 40 uM GlcN6P: < 1e-05 s⁻¹
[4]
  self-cleavage kobs at 640 uM GlcN6P: < 1e-05 s⁻¹
[3]
  self-cleavage kobs at 10000 uM GlcN6P: < 1e-05 s⁻¹

## C50G C70A
[1]
  self-cleavage kobs at 40 uM GlcN6P: 8.32e-05 ± 1.7e-05 s⁻¹
[5]
  self-cleavage kobs at 160 uM GlcN6P: 0.000173 ± 5.4e-05 s⁻¹
[4]
  self-cleavage kobs at 640 uM GlcN6P: 0.000163 ± 4.1e-05 s⁻¹
[2]
  self-cleavage kobs at 2500 uM GlcN6P: 0.000238 ± 5.8e-05 s⁻¹
[3]
  self-cleavage kobs at 10000 uM GlcN6P: 7.91e-05 ± 1.3e-05 s⁻¹

## G51C C61U G62C
[1]
  self-cleavage kobs at 40 uM GlcN6P: < 1e-05 s⁻¹
[3]
  self-cleavage kobs at 10000 uM GlcN6P: < 1e-05 s⁻¹

## A48C G63A C70A
[1]
  self-cleavage kobs at 40 uM GlcN6P: < 1e-05 s⁻¹

## A52G G63C
[1]
  self-cleavage kobs at 40 uM GlcN6P: < 1e-05 s⁻¹

## U49A G60C
[1]
  self-cleavage kobs at 40 uM GlcN6P: < 1e-05 s⁻¹
[4]
  self-cleavage kobs at 640 uM GlcN6P: < 1e-05 s⁻¹
[2]
  self-cleavage kobs at 2500 uM GlcN6P: < 1e-05 s⁻¹
[3]
  self-cleavage kobs at 10000 uM GlcN6P: < 1e-05 s⁻¹

## A52U C61A
[1]
  self-cleavage kobs at 40 uM GlcN6P: < 1e-05 s⁻¹
[3]
  self-cleavage kobs at 10000 uM GlcN6P: < 1e-05 s⁻¹

## U54C U65A
[1]
  self-cleavage kobs at 40 uM GlcN6P: 6.51e-05 ± 8.4e-06 s⁻¹
[4]
  self-cleavage kobs at 640 uM GlcN6P: 0.00147 ± 0.00042 s⁻¹
[3]
  self-cleavage kobs at 10000 uM GlcN6P: 0.00332 ± 0.00031 s⁻¹

## C58U G60U
[1]
  self-cleavage kobs at 40 uM GlcN6P: < 1e-05 s⁻¹
[4]
  self-cleavage kobs at 640 uM GlcN6P: < 1e-05 s⁻¹
[2]
  self-cleavage kobs at 2500 uM GlcN6P: < 1e-05 s⁻¹
[3]
  self-cleavage kobs at 10000 uM GlcN6P: < 1e-05 s⁻¹

## C58A G60A
[1]
  self-cleavage kobs at 40 uM GlcN6P: < 1e-05 s⁻¹
[5]
  self-cleavage kobs at 160 uM GlcN6P: < 1e-05 s⁻¹
[3]
  self-cleavage kobs at 10000 uM GlcN6P: < 1e-05 s⁻¹

## U55G C58A G60C C61G C67A
[1]
  self-cleavage kobs at 40 uM GlcN6P: < 1e-05 s⁻¹

## A53C U56C
[1]
  self-cleavage kobs at 40 uM GlcN6P: < 1e-05 s⁻¹
[2]
  self-cleavage kobs at 2500 uM GlcN6P: 0.000121 ± 2e-05 s⁻¹

## U49C U57C
[1]
  self-cleavage kobs at 40 uM GlcN6P: < 1e-05 s⁻¹
[5]
  self-cleavage kobs at 160 uM GlcN6P: < 1e-05 s⁻¹
[4]
  self-cleavage kobs at 640 uM GlcN6P: < 1e-05 s⁻¹
[3]
  self-cleavage kobs at 10000 uM GlcN6P: < 1e-05 s⁻¹

## G59U G63U C67A
[1]
  self-cleavage kobs at 40 uM GlcN6P: < 1e-05 s⁻¹
[3]
  self-cleavage kobs at 10000 uM GlcN6P: < 1e-05 s⁻¹

## U49C C70U
[1]
  self-cleavage kobs at 40 uM GlcN6P: < 1e-05 s⁻¹
[4]
  self-cleavage kobs at 640 uM GlcN6P: < 1e-05 s⁻¹
[3]
  self-cleavage kobs at 10000 uM GlcN6P: < 1e-05 s⁻¹
